{"source": "paper PMC5335332", "about": "“Arsenite oxidation regulator AioR regulates bacterial chemotaxis towards arsenite in Agrobacterium tumefaciens GW4” (Scientific Reports, 2017)", "key": {"[1]": {"test_system": "T1, AioR DNA-binding domain (HTH) (Agrobacterium tumefaciens GW4), ORF:ca4d298f", "T1 sequence": "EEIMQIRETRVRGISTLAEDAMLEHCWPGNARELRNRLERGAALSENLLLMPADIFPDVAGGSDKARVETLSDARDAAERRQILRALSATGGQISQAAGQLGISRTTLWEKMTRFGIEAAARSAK", "experiment": "EMSA", "conditions": "20 mM Tris-HCl pH 7.0, 50 mM NaCl, 1 mM DTT, 10 mM MgCl2, 100 ug/mL BSA; 28 C, 30 min; 6% native PAGE in 1x TGE"}, "[2]": {"target": "T2, Mcp (sensing domain; truncated Mcp)", "T2 construct": "predicted extracellular sensing domain, aa 43-325, EcoRI-HindIII in pET-28a(+), His-tagged, E. coli, Ni-NTA; one of 20 mcp genes in the genome; Trp residues W44, W166, W254, W308", "experiment": "intrinsic tryptophan fluorescence quenching at […] nm", "type": "binding, Agrobacterium tumefaciens", "conditions": "1.0 μM protein, 0-25 μM As(III), 1 h, room temperature"}, "[3]": {"test_system": "T1, AioR DNA-binding domain (HTH) (Agrobacterium tumefaciens GW4), ORF:ca4d298f", "experiment": "DNase I footprinting", "conditions": "20 mM Tris-HCl pH 7.0, 50 mM NaCl, 1 mM DTT, 10 mM MgCl2, 100 ug/mL BSA; 28 C, 30 min; 6% native PAGE in 1x TGE"}, "[4]": {"test_system": "T1, AioR DNA-binding domain (HTH) (Agrobacterium tumefaciens GW4), ORF:ca4d298f", "experiment": "competition", "conditions": "20 mM Tris-HCl pH 7.0, 50 mM NaCl, 1 mM DTT, 10 mM MgCl2, 100 ug/mL BSA; 28 C, 30 min; 6% native PAGE in 1x TGE"}}}
{"molecule": "TTTCACGCACGACACTCTGGGAGAAGATGACGCGTTTCGGAATAGAAGCAGCCGCACGTTCGGCCAAATGAACAACGGCGGCGAGACGCTGTTCGGAAAAGCGAACGGGCAACTGGCCATCAAACGGGAAAATATCTATATTTCAGTATTTTAGGAATTGGCATAGCAAT (double strand) [aioBA regulatory region, 170 bp]", "values": [{"measurement": "binding", "setting": "[1]", "value": "binds"}]}
{"molecule": "O[As](O)O", "note": "[As(III)]", "values": [{"measurement": "Kd", "setting": "[2]", "value": "11 ± 3.02", "unit": "µM"}]}
{"molecule": "TACGGAAAGCACAATACGTGTGCGAATGAAACCAGTTTGCAGTTGTCGGATTTCCGCTTATCATTGAAATAAATGCCGTTATTTTGTGCAGTATAGATTGATTAATATGTTTTATTTATAATATAAATTTTTGCTACATAGCAGTATTCGGATTTAATCGGAGCCAGCATTTGCTTATTGCTACATATATAAACACCTATAAGCTCTAATATGATTCTTTTATGACAATAATATCGAAAAATTAACTATGCGATCCCAG (double strand) [mutant mcp regulatory region]", "values": [{"measurement": "binding", "setting": "[1]", "value": "no binding"}]}
{"molecule": "TACGGAAAGCACAATACGTGTGCGAATGAAACCAGTTTGCAGTGTTCGGATTTCCGAACATCATTGAAATAAATGCCGTTATTTTGTGCAGTATAGATTGATTAATATGTTTTATTTATAATATAAATTTTTGCTACATAGCAGTATTCGGATTTAATCGGAGCCAGCATTTGCTTATTGCTACATATATAAACACCTATAAGCTCTAATATGATTCTTTTATGACAATAATATCGAAAAATTAACTATGCGATCCCAG (double strand) [mcp regulatory region, 259 bp]", "values": [{"measurement": "binding", "setting": "[3]", "value": "binds"}, {"measurement": "binding", "setting": "[4]", "value": "binds"}, {"measurement": "binding", "setting": "[1]", "value": "binds"}]}
